According to PMC3660575, “The Intracellular Domain of Sortilin Interacts with Amyloid Precursor Protein and Regulates Its Lysosomal and Lipid Raft Trafficking” (PLoS ONE, 2013):

Target: T1, APP770-YFP (human, UniProt P05067-1 18-770)
T1 construct: human amyloid precursor protein, the isoform named APP770; Plasmid was a gift (Prof. Goldstein, UCSD); the construct is not described further; also called APP-YFP; source: HEK293, transfected (APP770-YFP pcDNA3.1), in lysate or in living cells
Test: FRET or BRET; FRET acceptor bleaching in co-transfected HEK293 cells (YFP and CFP fusions); FRET efficiency from photobleached regions of interest; the negative control's value used as cut-off
Settings: partners not purified

T1 sequence (P05067 18-770): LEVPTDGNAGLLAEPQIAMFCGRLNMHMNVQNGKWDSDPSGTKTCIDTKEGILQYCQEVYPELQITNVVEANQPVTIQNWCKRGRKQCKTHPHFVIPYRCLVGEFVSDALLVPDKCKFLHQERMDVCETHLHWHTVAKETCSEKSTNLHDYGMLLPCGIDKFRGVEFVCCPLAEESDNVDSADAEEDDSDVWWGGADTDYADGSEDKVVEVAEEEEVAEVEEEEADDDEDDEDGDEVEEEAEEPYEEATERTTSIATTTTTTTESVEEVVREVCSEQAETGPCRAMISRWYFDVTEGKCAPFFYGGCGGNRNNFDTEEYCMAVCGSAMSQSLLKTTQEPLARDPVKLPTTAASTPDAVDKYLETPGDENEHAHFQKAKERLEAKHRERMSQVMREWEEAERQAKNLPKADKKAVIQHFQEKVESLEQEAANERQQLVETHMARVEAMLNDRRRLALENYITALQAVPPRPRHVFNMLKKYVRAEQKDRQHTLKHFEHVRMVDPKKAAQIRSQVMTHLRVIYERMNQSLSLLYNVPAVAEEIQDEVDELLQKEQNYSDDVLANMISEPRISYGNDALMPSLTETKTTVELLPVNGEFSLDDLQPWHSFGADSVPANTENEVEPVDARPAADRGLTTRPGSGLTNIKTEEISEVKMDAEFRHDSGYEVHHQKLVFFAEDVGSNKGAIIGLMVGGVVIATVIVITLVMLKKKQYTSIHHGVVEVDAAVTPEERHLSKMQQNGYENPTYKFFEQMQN

B1: Sort 756-831-CFP (domain or fragment, human, UniProt Q99523-1 756-831, looked up)
chain: SVPIILAIVGLMLVTVVAGVLIVKKYVCGGRFLVHRYSVLQQHAEANGVDGVDALDTASHTNKSGYHDDSDEDLLE
notes: The forward primer adds a start ATG before the stretch; source: HEK293, transfected, in lysate or in living cells; not shown: CFP (vector pECFP-N1), C-terminal, kept
FRET efficiency: 40%
